Numbered stars: 1 amine (or outer) side, 2 acyl side, 3 side chain; on linkers, the order of the positions; unused ones are H or OH. Bridge positions count the residues as written; N and C are the ends. Side chains are listed from the residue outwards. Ends that are not written are not given here. * marks the point of attachment. C20 diacid = O=C(O)CCCCCCCCCCCCCCCCCCC(=O)*; γGlu = O=C(O)[C@H](CCC(=O)[*:2])N[*:1]
T1: human calcitonin receptor (human, UniProt P30988 25-474)
T1 construct: whole, on cells; Membranes of BHK cells stably transfected with the human calcitonin receptor (Assay VII); also called hCTR; hCT
T1 sequence (looked up): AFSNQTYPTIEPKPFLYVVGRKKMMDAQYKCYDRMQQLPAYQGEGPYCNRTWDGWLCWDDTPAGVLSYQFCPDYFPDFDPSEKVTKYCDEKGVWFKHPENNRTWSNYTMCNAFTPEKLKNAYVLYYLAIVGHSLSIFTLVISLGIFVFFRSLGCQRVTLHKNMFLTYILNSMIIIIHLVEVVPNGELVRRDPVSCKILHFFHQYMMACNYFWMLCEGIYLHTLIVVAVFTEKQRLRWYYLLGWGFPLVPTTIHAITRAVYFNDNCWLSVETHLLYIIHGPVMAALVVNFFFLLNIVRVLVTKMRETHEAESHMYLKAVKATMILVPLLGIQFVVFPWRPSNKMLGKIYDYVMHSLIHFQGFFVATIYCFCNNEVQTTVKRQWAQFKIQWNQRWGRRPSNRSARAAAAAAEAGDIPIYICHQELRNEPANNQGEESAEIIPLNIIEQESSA

T2: human calcitonin receptor (human, UniProt P30988 25-474)
T2 sequence (looked up): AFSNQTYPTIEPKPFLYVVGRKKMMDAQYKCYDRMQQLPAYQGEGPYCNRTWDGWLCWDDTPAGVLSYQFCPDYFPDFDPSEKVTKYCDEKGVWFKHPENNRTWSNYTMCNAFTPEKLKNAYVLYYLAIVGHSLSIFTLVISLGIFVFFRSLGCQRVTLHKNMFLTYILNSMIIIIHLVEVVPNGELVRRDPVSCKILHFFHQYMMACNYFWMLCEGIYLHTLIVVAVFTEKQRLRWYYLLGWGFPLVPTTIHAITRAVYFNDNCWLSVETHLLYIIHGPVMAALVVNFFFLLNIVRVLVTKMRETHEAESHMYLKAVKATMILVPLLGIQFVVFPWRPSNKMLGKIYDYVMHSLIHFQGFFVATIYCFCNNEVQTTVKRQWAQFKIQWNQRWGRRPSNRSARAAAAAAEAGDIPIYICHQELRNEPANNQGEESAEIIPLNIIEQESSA


Legend:
[1] = biological target: T1, human calcitonin receptor; test: ratio of IC50 at hCTR over IC50 at hAmylin-R (SPA competition assays)
How it was run: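 Competition binding by SPA with cell membranes (35 ng/μL) and SPA beads in 50 mM Hepes pH 7.4 with 1 mM CaCl2, 5 mM MgCl2, 0.1% OA and 0.02% Tween20. Incubated 120 min at 25 °C with shaking, then counted.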

[2] = biological target: T1, human calcitonin receptor; test: SPA competition against 125I-calcitonin, membranes of BHK cells with human calcitonin receptor (Assay VII)
How it was run: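 BHK hCTR membranes 35 ng/μL + SPA beads 0.05 mg/well; buffer 50 mM Hepes pH 7.4, 1 mM CaCl2, 5 mM MgCl₂, 0.1% OA, 0.02% Tween20. 120 min, 25° C., shaking. Scintillation count; IC50 by one-site binding competition.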

[3] = biological target: T2, human calcitonin receptor; test: cell-based or functional assay

Ratio hCT/hAmylin binding [1]	IC50 [2] [nM]	hCTR funct. EC50 (pM) [3] [pM]	Binder
45.3	3.44		K([γGlu-γGlu-C20 diacid])CNTATCATQRLASFLRHSSPNFGAIPSSTNVGPETY-NH2 (disulfide 2-7; N-terminus assumed; SMILES CC[C@H](C)[C@H](NC(=O)[C@H](C)NC(=O)CNC(=O)[C@H](Cc1ccccc1)NC(=O)[C@H](CC(N)=O)NC(=O)[C@@H]1CCCN1C(=O)[C@H](CO)NC(=O)[C@H](CO)NC(=O)[C@H](Cc1c[nH]cn1)NC(=O)[C@H](CCCNC(=N)N)NC(=O)[C@H](CC(C)C)NC(=O)[C@H](Cc1ccccc1)NC(=O)[C@H](CO)NC(=O)[C@H](C)NC(=O)[C@H](CC(C)C)NC(=O)[C@H](CCCNC(=N)N)NC(=O)[C@H](CCC(N)=O)NC(=O)[C@@H](NC(=O)[C@H](C)NC(=O)[C@@H]1CSSC[C@H](NC(=O)[C@@H](N)CCCCNC(=O)CC[C@H](NC(=O)CC[C@H](NC(=O)CCCCCCCCCCCCCCCCCCC(=O)O)C(=O)O)C(=O)O)C(=O)N[C@@H](CC(N)=O)C(=O)N[C@@H]([C@@H](C)O)C(=O)N[C@@H](C)C(=O)N[C@@H]([C@@H](C)O)C(=O)N1)[C@@H](C)O)C(=O)N1CCC[C@H]1C(=O)N[C@@H](CO)C(=O)N[C@@H](CO)C(=O)N[C@H](C(=O)N[C@@H](CC(N)=O)C(=O)N[C@H](C(=O)NCC(=O)N1CCC[C@H]1C(=O)N[C@@H](CCC(=O)O)C(=O)N[C@H](C(=O)N[C@@H](Cc1ccc(O)cc1)C(N)=O)[C@@H](C)O)C(C)C)[C@@H](C)O, also called compound 120)
		2360	K([γGlu-γGlu-C20 diacid])CNTATCATQRLAEFLRHSSPNFGAIPSSTNVGPETY-NH2 (disulfide 2-7; N-terminus assumed; SMILES CC[C@H](C)[C@H](NC(=O)[C@H](C)NC(=O)CNC(=O)[C@H](Cc1ccccc1)NC(=O)[C@H](CC(N)=O)NC(=O)[C@@H]1CCCN1C(=O)[C@H](CO)NC(=O)[C@H](CO)NC(=O)[C@H](Cc1c[nH]cn1)NC(=O)[C@H](CCCNC(=N)N)NC(=O)[C@H](CC(C)C)NC(=O)[C@H](Cc1ccccc1)NC(=O)[C@H](CCC(=O)O)NC(=O)[C@H](C)NC(=O)[C@H](CC(C)C)NC(=O)[C@H](CCCNC(=N)N)NC(=O)[C@H](CCC(N)=O)NC(=O)[C@@H](NC(=O)[C@H](C)NC(=O)[C@@H]1CSSC[C@H](NC(=O)[C@@H](N)CCCCNC(=O)CC[C@H](NC(=O)CC[C@H](NC(=O)CCCCCCCCCCCCCCCCCCC(=O)O)C(=O)O)C(=O)O)C(=O)N[C@@H](CC(N)=O)C(=O)N[C@@H]([C@@H](C)O)C(=O)N[C@@H](C)C(=O)N[C@@H]([C@@H](C)O)C(=O)N1)[C@@H](C)O)C(=O)N1CCC[C@H]1C(=O)N[C@@H](CO)C(=O)N[C@@H](CO)C(=O)N[C@H](C(=O)N[C@@H](CC(N)=O)C(=O)N[C@H](C(=O)NCC(=O)N1CCC[C@H]1C(=O)N[C@@H](CCC(=O)O)C(=O)N[C@H](C(=O)N[C@@H](Cc1ccc(O)cc1)C(N)=O)[C@@H](C)O)C(C)C)[C@@H](C)O, synthetic peptide amide)
